Data taken from patent publication EP4545563A1, “ANTIBODIES TARGETING ITGA2 AND ANTIBODY-DRUG […]” (Foreseen Technology (Beijing) Co., Ltd., priority 2022, dated 2024).

Experiments:
A431 = test: ADC cancer cell killing, Cell-Titer-Glo 2.0; type: cell-based, human
Procedure: (§1) Human bile duct cancer cells HuCC-T1 available from Zhejiang MeisenCTCC, human epidermal cancer cells A431 available from Procell Life Science&Technology Co.,Ltd. (Wuhan) and Chinese hamster ovary cells CHO from negative control ATCC were seeded into a 96-well plate at 2500 cells/well. It was then incubated in a 5% CO2 incubator overnight at 37°C. Half of the medium was removed from the cell plate on the next day. A 2x hIgG1 (negative control antibody, provided by Biointron), Vatelizumab, FS002-A1-vc-MMAE, FS002-A15-vc-MMAE, FS002-A36-vc-MMAE, Vatelizumab-ve-MMAE, hIgG1-vcMMAE (negative control ADC, provided by ChemPartner) was prepared with a complete culture medium, and then diluted at a 3-fold gradient with 11 specific concentration points in total. Serial dilutions of the above molecules were added to the appropriate wells, and it was then incubated in a 5% CO2 incubator for 5 days at 37°C. After the incubation, 100 uL of Cell-Titer-Glo 2.0 reagent was added to the 96-well plate. It was then well mixed on a plate shaker for 2 minutes, and finally equilibrated at room temperature for 10 minutes. Readings were taken using a microplate reader. Finally, IC50 was used to compare the biological activity of the ADC against each cell line.

HuCC-T1 = test: ADC cancer cell killing, Cell-Titer-Glo 2.0; type: cell-based, human
Procedure: as §1

CHO = test: ADC cell killing in negative control cells, Cell-Titer-Glo 2.0; type: cell-based, Chinese hamster
Procedure: as §1

[1] = result in words, summary of Table 9

B1: Vatelizumab-ve-MMAE: antibody-drug conjugate of the positive control antibody Vatelizumab with vc-MMAE as the linker-payload (conjugate, chains of the INN, looked up)
VH: QVQLQESGPGLVKPSETLSLTCTVSGFSLTNYGIHWIRQPPGKGLEWLGVIWARGFTNYNSALMSRLTISKDNSKNQVSLKLSSVTAADTAVYYCARANDGVYYAMDYWGQGTLVTVSS
VL: DFVMTQSPAFLSVTPGEKVTITCSAQSSVNYIHWYQQKPDQAPKKLIYDTSKLASGVPSRFSGSGSGTDYTFTISSLEAEDAATYYCQQWTTNPLTFGQGTKVEIK
modifications: vc-MMAE payload
IC50 (A431; human epidermal cancer cells A431, incubated 5 days at 37°C): 0.08 nM | killing effect on A431 (A431; [1]): good killing effect | IC50 (HuCC-T1; Human bile duct cancer cells HuCC-T1, incubated 5 days at 37°C): 0.89 nM | killing effect on HuCC-T1 (HuCC-T1; [1]): good killing effect | IC50 (CHO; negative control cells CHO, incubated 5 days at 37°C): > 207 nM | killing effect on negative control cells CHO (CHO; [1]): no killing effect
